Reference: article doi:10.1101/2025.09.16.676506 (bioRxiv, 2025)
Read-outs that look alike come from different tables or passages of the source.

Tests used:
Experiment in all cases: cryo-EM structure
TatB3C3 complex [1] = target: T1, TatB3C3 complex (E. coli, UniProt P69425;P69423)
T1 sequence 1: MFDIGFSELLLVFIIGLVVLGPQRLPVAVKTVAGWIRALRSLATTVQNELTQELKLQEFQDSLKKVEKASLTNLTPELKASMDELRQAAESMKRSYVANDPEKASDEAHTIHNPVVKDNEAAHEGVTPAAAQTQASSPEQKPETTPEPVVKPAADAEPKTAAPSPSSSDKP
T1 sequence 2: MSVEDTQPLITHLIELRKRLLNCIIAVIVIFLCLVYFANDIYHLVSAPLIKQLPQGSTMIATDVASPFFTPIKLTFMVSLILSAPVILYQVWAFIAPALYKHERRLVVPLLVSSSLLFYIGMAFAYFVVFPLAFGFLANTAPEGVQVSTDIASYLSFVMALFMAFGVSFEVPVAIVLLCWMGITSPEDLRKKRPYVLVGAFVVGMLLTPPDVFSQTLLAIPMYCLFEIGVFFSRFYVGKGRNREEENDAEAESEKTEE

TatB3C3 complex [2] = target: T1, TatB3C3 complex; remark: listed apart in the source
[3] = target: T2, TatC with a C-terminal 3XFLAG tag (E. coli), P69423; details: remark: other sources report otherwise
T2 chain: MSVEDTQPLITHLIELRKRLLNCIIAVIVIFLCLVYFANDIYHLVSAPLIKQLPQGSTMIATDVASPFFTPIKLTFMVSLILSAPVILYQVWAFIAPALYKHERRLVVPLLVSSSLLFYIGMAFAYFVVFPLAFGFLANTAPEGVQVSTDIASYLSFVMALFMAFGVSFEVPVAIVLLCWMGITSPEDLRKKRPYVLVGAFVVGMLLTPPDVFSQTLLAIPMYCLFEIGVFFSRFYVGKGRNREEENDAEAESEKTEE

cryo-EM structure = target: the molecule itself

B1: SufI–8×His (natural protein)
chain: MSLSRRQFIQASGIALCAGAVPLKASAAGQQQPLPVPPLLESRRGQPLFMTVQRAHWSFTPGTRASVWGINGRYLGPTIRVWKGDDVKLIYSNRLTENVSMTVAGLQVPGPLMGGPARMMSPNADWAPVLPIRQNAATLWYHANTPNRTAQQVYNGLAGMWLVEDEVSKSLPIPNHYGVDDFPVIIQDKRLDNFGTPEYNEPGSGGFVGDTLLVNGVQSPYVEVSRGWVRLRLLNASNSRRYQLQMNDGRPLHVISGDQGFLPAPVSVKQLSLAPGERREILVDMSNGDEVSITCGEAASIVDRIRGFFEPSSILVSTLVLTLRPTGLLPLVTDSLPMRLLPTEIMAGSPIRSRDISLGDDPGINGQLWDVNRIDVTAQQGTWERWTVRADEPQAFHIEGVMFQIRNVNGAMPFPEDRGWKDTVWVDGQVELLVYFGQPSWAHFPFYFNSQTLEMADRGSIGQLLVNPVP
TatB3C3 complex [1]
  stoichiometry N: 1
TatB3C3 complex [2]
  stoichiometry N: 2

B2: TatC with a C-terminal 3XFLAG tag, P69423 1-258 (natural protein)
chain: MSVEDTQPLITHLIELRKRLLNCIIAVIVIFLCLVYFANDIYHLVSAPLIKQLPQGSTMIATDVASPFFTPIKLTFMVSLILSAPVILYQVWAFIAPALYKHERRLVVPLLVSSSLLFYIGMAFAYFVVFPLAFGFLANTAPEGVQVSTDIASYLSFVMALFMAFGVSFEVPVAIVLLCWMGITSPEDLRKKRPYVLVGAFVVGMLLTPPDVFSQTLLAIPMYCLFEIGVFFSRFYVGKGRNREEENDAEAESEKTEE
[3]
  stoichiometry N: 3

B3: TatB (natural protein)
chain: MFDIGFSELLLVFIIGLVVLGPQRLPVAVKTVAGWIRALRSLATTVQNELTQELKLQEFQDSLKKVEKASLTNLTPELKASMDELRQAAESMKRSYVANDPEKASDEAHTIHNPVVKDNEAAHEGVTPAAAQTQASSPEQKPETTPEPVVKPAADAEPKTAAPSPSSSDKP
cryo-EM structure
  stoichiometry N: 3
